# Laboratory results from US20220267452A1 (Chugai, published 2022).
# B1: FGA0007 bivalent Ab (FGA0007VH-F760mnN17/FGA0007VL-k0MTC) (antibody, human IgG1, kappa, N297A, V domains shown)
# VH: QSVEESGGRLVTPGTPLTLTCTVSGFSLSSYPMSWVRQAPGKGLEWIGIISSSGRTYYASWAKGRFTISKASSTTAALKMTSLTTEDTATYFCARGGVYKYDDYGDYVLNLWGRGTLVTVSS
# VL: AIEMTQTPFSVSAAVGGTVTINCQASENIYSNLAWYQQKPGQPPKLLIYAASYLASGVPSRFKGSGSGTDYTLTISGVQCADAATYYCQCTLYSSTYGVAFGGGTEVVVKR
# notes: Rabbit-human chimeric bivalent (monospecific) antibody, expressed in Expi293 cells; also called monospecific antibody FGA0007
# B2: FGA0005/CD3-TRAB (FGA0005VH-F760mnN17/FGA0005VL-k0MTC//TR01H113-F760mnP17/L0011-k0) (bispecific antibody, human IgG1, kappa, N297A)
# heavy 1: QSLEESGGRLVTPGTPLTLTCTASGFSLSTYWICWVRQAPGEGLEWIGYISSSGNTYYASWAKGRFTISKTSSTTVDLKMTSLTTEDTATYFCGGHNSDYITGWALDPWGPGTLVTVSSASTKGPSVFPLAPSSKSTSGGTAALGCLVKDYFPEPVTVSWNSGALTSGVHTFPAVLQSSGLYSLSSVVTVPSSSLGTQTYICNVNHKPSNTKVDKKVEPKSCDKTHTCPPCPAPELRGGPKVFLFPPKPKDTLMISRTPEVTCVVVDVSHEDPEVKFNWYVDGVEVHNAKTKPREEQYASTYRVVSVLTVLHQDWLNGKEYKCKVSNKALPAPIEKTISKAKGQPREPQVYTLPPSREEMTKNQVSLTCLVKGFYPSDIAVEWESNGQPENNYKTTPPYLDSDGSFFLYSKLTVDKSRWQQGNVFSCSVMHEALHNHYTQESLSLSP
# light 1: AAVLTQTASPMSAAVGGTVTINCQSSKSVYRDKWLSWFQQKPGQPPKLLIYGASNLASGVSSRFKGSGSGTQFTLTISDVQCDDAATYYCLGGYSDNSEDAFGGGTEVVVKRTVAAPSVFIFPPSDEQLKSGTASVVCLLNNFYPREAKVQWKVDNALQSGNSQESVTEQDSKDCTYSLSSTLTLSKADYEKHKVYACEVTHQGLSSPVTKSFNRGEC
# heavy 2: QVQLVESGGGVVQPGGSLRLSCAASGFTFSNAWMHWVRQAPGKGLEWVAQIKDKSQNYATYVAESVKGRFTISRADSKNSIYLQMNSLKTEDTAVYYCRYVHYAAGYGVDIWGQGTTVTVSSASTKGPSVFPLAPSSKSTSGGTAALGCLVKDYFPEPVTVSWNSGALTSGVHTFPAVLQSSGLYSLSSVVTVPSSSLGTQTYICNVNHKPSNTKVDKKVEPKSCDKTHTCPPCPAPELRGGPKVFLFPPKPKDTLMISRTPEVTCVVVDVSHEDPEVKFNWYVDGVEVHNAKTKPREEQYASTYRVVSVLTVLHQDWLNGKEYKCKVSNKALPAPIEKTISKAKGQPREPQVYTLPPSRKEMTKNQVSLTCLVKGFYPSDIAVEWESNGQPENNYKTTPPYLDSDGSFFLYSKLTVDKSRWQQGNVFSCSVMHEALHNHYTQKSLSLSP
# light 2: DIVMTQSPLSLPVTPGEPASISCRSSQPLVHSNRNTYLHWYQQKPGQAPRLLIYKVSNRFSGVPDRFSGSGSGTDFTLKISRVEAEDVGVYYCGQGTQVPYTFGQGTKLEIKRTVAAPSVFIFPPSDEQLKSGTASVVCLLNNFYPREAKVQWKVDNALQSGNSQESVTEQDSKDSTYSLSSTLTLSKADYEKHKVYACEVTHQGLSSPVTKSFNRGEC
# notes: Made by Fab-arm exchange (2-MEA) of the bivalent FGA0005 antibody and the anti-CD3 antibody; also called bispecific antibody FGA0005/CD3-TRAB
# B3: FGA0007/CD3-TRAB (FGA0007VH-F760mnN17/FGA0007VL-k0MTC//TR01H113-F760mnP17/L0011-k0) (bispecific antibody, human IgG1, kappa, N297A)
# heavy 1: QSVEESGGRLVTPGTPLTLTCTVSGFSLSSYPMSWVRQAPGKGLEWIGIISSSGRTYYASWAKGRFTISKASSTTAALKMTSLTTEDTATYFCARGGVYKYDDYGDYVLNLWGRGTLVTVSSASTKGPSVFPLAPSSKSTSGGTAALGCLVKDYFPEPVTVSWNSGALTSGVHTFPAVLQSSGLYSLSSVVTVPSSSLGTQTYICNVNHKPSNTKVDKKVEPKSCDKTHTCPPCPAPELRGGPKVFLFPPKPKDTLMISRTPEVTCVVVDVSHEDPEVKFNWYVDGVEVHNAKTKPREEQYASTYRVVSVLTVLHQDWLNGKEYKCKVSNKALPAPIEKTISKAKGQPREPQVYTLPPSREEMTKNQVSLTCLVKGFYPSDIAVEWESNGQPENNYKTTPPYLDSDGSFFLYSKLTVDKSRWQQGNVFSCSVMHEALHNHYTQESLSLSP
# light 1: AIEMTQTPFSVSAAVGGTVTINCQASENIYSNLAWYQQKPGQPPKLLIYAASYLASGVPSRFKGSGSGTDYTLTISGVQCADAATYYCQCTLYSSTYGVAFGGGTEVVVKRTVAAPSVFIFPPSDEQLKSGTASVVCLLNNFYPREAKVQWKVDNALQSGNSQESVTEQDSKDCTYSLSSTLTLSKADYEKHKVYACEVTHQGLSSPVTKSFNRGEC
# heavy 2: B2 heavy 2
# light 2: B2 light 2
# notes: Made by Fab-arm exchange (2-MEA); also called bispecific antibody FGA0007/CD3-TRAB
# B4: FGA0005 bivalent Ab (FGA0005VH-F760mnN17/FGA0005VL-k0MTC) (antibody, human IgG1, kappa, N297A, V domains shown)
# VH: QSLEESGGRLVTPGTPLTLTCTASGFSLSTYWICWVRQAPGEGLEWIGYISSSGNTYYASWAKGRFTISKTSSTTVDLKMTSLTTEDTATYFCGGHNSDYITGWALDPWGPGTLVTVSS
# VL: AAVLTQTASPMSAAVGGTVTINCQSSKSVYRDKWLSWFQQKPGQPPKLLIYGASNLASGVSSRFKGSGSGTQFTLTISDVQCDDAATYYCLGGYSDNSEDAFGGGTEVVVKR
# notes: Rabbit-human chimeric bivalent (monospecific) antibody, expressed in Expi293 cells; also called monospecific antibody FGA0005
# Target: T1, wild-type human FGFR3 (hFGFR3 protein, SEQ ID NO: 1) (human, UniProt P22607 23-804)
# T1 construct: Full-length cDNA expressed in CHO DXB11s cells; The construct used in PC10/FGFR3 WT cells is not described; also called FGFR3 WT; wild-type hFGFR3
# Test: flow cytometry on hFGFR3/CHO DXB11s cells
# Experimental: The binding activity of monospecific antibodies FGA0005 and FGA0007 and bispecific antibodies FGA0005/CD3-TRAB and FGA0007/CD3-TRAB against wild-type hFGFR3 or hFGFR3 S249C mutant on the cell surface of hFGFR3/CHO DXB11s cells and hFGFR3 S249C/CHO DXB11s cells prepared by the method described in Example 1 and parent strain CHO DXB11s cells was measured using flow cytometry.
# After 9×10⁶ cells of each cell line were washed with FACS/PBS supplemented with 0.5% BSA, 450 μL of Fixable Viability Dye 780 (eBioscience) diluted 5000 times was added to each of the cells. 25 μL each of the prepared cell suspensions was dispensed into v-bottom 96 well plates (Greiner Bio-one). Monospecific antibodies FGA0005 and FGA0007 with twice the final concentration of 0.01, 0.1, 1 μg/mL were prepared. In addition, bispecific antibodies FGA0005/CD3-TRAB and FGA0007/CD3-TRAB with twice the final concentration of 5, 10, and 20 μg/mL were prepared. 25 μL solutions containing the monospecific antibodies FGA0005 bivalent Ab and FGA0007 bivalent Ab, and the bispecific antibodies FGA0005/CD3-TRAB and FGA0007/CD3-TRAB prepared at a double concentration were added to the v-bottom 96 well plates, and allowed to stand at 4° C. for 30 minutes. After the cells were washed with FACS/PBS, Goat anti-Human IgG Fc Cross-Adsorbed Secondary Antibody, Dylight 650 Conjugate (Invitrogen) diluted 100-fold with FACS/PBS was added at 50 μL each and left to stand at 4° C. for 30 minutes. Cells were washed with FACS/PBS and then analyzed by flow cytometry.
# T1 sequence (P22607 other isoform, or with tags, fused parts or gaps): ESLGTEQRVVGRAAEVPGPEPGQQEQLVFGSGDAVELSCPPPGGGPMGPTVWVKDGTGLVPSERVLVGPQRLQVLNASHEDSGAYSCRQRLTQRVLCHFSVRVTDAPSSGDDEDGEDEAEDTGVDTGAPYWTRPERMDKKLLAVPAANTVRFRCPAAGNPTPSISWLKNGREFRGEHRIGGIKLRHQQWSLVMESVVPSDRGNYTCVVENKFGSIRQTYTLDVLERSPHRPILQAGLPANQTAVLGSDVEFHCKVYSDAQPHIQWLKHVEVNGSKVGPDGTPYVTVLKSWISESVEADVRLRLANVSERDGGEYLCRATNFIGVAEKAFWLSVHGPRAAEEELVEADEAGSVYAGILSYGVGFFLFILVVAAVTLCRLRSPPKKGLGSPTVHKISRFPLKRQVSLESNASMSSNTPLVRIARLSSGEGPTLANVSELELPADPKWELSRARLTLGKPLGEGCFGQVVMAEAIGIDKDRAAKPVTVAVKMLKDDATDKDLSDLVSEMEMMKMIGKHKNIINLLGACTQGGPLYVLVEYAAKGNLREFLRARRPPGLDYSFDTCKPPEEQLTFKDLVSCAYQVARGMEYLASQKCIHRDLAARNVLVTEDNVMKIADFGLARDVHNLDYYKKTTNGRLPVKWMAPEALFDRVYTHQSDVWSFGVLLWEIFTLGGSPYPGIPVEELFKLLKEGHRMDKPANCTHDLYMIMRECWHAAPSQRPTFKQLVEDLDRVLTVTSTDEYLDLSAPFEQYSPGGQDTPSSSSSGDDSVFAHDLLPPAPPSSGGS
row,Binder,binding result
1,B1,"no binding (tested: 0.01, 0.1, 1 µg/mL)"
2,B2,"no binding (tested: 5, 10, and 20 µg/mL)"
3,B3,"no binding (tested: 5, 10, and 20 µg/mL)"
4,B4,"no binding (tested: 0.01, 0.1, 1 µg/mL)"
